Laboratory results as given in paper PMC8729784.

Biological target: T1, α-catenin monomer (recombinant full-length mouse α-catenin) (mouse), P26231
T1 chain: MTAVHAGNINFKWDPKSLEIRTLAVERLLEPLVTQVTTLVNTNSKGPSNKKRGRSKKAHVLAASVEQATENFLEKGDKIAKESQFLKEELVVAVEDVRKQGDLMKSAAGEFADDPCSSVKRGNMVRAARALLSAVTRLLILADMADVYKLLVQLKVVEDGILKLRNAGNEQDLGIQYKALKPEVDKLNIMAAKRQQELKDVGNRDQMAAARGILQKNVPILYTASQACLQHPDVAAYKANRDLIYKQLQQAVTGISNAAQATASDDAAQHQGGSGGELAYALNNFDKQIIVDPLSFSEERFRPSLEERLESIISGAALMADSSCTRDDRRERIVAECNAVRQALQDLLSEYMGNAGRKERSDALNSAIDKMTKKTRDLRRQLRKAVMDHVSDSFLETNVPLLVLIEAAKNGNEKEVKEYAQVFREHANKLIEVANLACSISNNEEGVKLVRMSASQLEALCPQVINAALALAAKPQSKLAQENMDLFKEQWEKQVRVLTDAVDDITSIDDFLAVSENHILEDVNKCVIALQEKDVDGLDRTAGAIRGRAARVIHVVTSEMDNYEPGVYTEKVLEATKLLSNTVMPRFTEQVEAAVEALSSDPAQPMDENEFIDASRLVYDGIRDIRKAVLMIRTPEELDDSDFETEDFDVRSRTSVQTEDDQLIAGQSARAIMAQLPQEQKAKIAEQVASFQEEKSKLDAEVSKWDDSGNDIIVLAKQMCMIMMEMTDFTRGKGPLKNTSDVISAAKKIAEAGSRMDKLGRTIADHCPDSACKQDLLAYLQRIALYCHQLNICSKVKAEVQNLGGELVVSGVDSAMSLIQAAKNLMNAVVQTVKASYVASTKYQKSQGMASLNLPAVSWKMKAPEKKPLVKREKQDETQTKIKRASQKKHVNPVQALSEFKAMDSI
Experiment: SEC; Superdex 200 gel filtration at 4°C in 20 mM Tris-HCl pH 8.0, 150 mM NaCl, 2.5 mM DTT, after His-tag affinity chromatography; dimer and monomers
Settings: remark: other sources report otherwise

stoichiometry N: 2
B1: α-catenin monomer (recombinant full-length mouse α-catenin), P26231 1-906 (natural protein)
chain: MTAVHAGNINFKWDPKSLEIRTLAVERLLEPLVTQVTTLVNTNSKGPSNKKRGRSKKAHVLAASVEQATENFLEKGDKIAKESQFLKEELVVAVEDVRKQGDLMKSAAGEFADDPCSSVKRGNMVRAARALLSAVTRLLILADMADVYKLLVQLKVVEDGILKLRNAGNEQDLGIQYKALKPEVDKLNIMAAKRQQELKDVGNRDQMAAARGILQKNVPILYTASQACLQHPDVAAYKANRDLIYKQLQQAVTGISNAAQATASDDAAQHQGGSGGELAYALNNFDKQIIVDPLSFSEERFRPSLEERLESIISGAALMADSSCTRDDRRERIVAECNAVRQALQDLLSEYMGNAGRKERSDALNSAIDKMTKKTRDLRRQLRKAVMDHVSDSFLETNVPLLVLIEAAKNGNEKEVKEYAQVFREHANKLIEVANLACSISNNEEGVKLVRMSASQLEALCPQVINAALALAAKPQSKLAQENMDLFKEQWEKQVRVLTDAVDDITSIDDFLAVSENHILEDVNKCVIALQEKDVDGLDRTAGAIRGRAARVIHVVTSEMDNYEPGVYTEKVLEATKLLSNTVMPRFTEQVEAAVEALSSDPAQPMDENEFIDASRLVYDGIRDIRKAVLMIRTPEELDDSDFETEDFDVRSRTSVQTEDDQLIAGQSARAIMAQLPQEQKAKIAEQVASFQEEKSKLDAEVSKWDDSGNDIIVLAKQMCMIMMEMTDFTRGKGPLKNTSDVISAAKKIAEAGSRMDKLGRTIADHCPDSACKQDLLAYLQRIALYCHQLNICSKVKAEVQNLGGELVVSGVDSAMSLIQAAKNLMNAVVQTVKASYVASTKYQKSQGMASLNLPAVSWKMKAPEKKPLVKREKQDETQTKIKRASQKKHVNPVQALSEFKAMDSI
